Assay results from publication doi:10.1101/645523.

How the values were obtained:
Assay in all cases: cryo-EM structure
[1] = molecular target: Host-recognition protein P5 of bacteriophage PR772 (bacteriophage PR772)
[2] = molecular target: Capsid associated protein P30 of bacteriophage PR772 (bacteriophage PR772)
[3] = molecular target: Major capsid protein P3 of bacteriophage PR772 (bacteriophage PR772)

Substance: Host-recognition protein P5 of bacteriophage PR772 (natural protein)
- stoichiometry N [1]: 3

Substance: Capsid associated protein P30 of bacteriophage PR772 (natural protein)
- stoichiometry N [2]: 2

Substance: Major capsid protein P3 of bacteriophage PR772 (natural protein)
- stoichiometry N [3]: 3
